From paper PMC10319874 (Scientific Reports, 2023)

B1: recombinant RgpA propeptide (rRgpA-PP) (domain or fragment)
chain: QQTELGRNPNVRLLESTQQSVTKVQFRMDNLKFTEVQTPKGMAQVPTYTEGVNLSEKGMPTLPILSRSLAVSDTREMKVEVVSSKFIEKKNVLIAPSKGMIMRNEDPKKIPYVYGKSYSQNKFFPGEIATLDDPFILRDVRGQVVNFAPLQYNPVTKTLRIYTEITVAVSETSEQGKNILNKKGTFAGFEDTYKRMFMNYEPGR
B2: recombinant RgpB propeptide (rRgpB-PP) (domain or fragment)
chain: QPAERGRNPQVRLLSAEQSMSKVQFRMDNLQFTGVQTSKGVAQVPTFTEGVNISEKGTPILPILSRSLAVSETRAMKVEVVSSKFIEKKDVLIAPSKGVISRAENPDQIPYVYGQSYNEDKFFPGEIATLSDPFILRDVRGQVVNFAPLQYNPVTKTLRIYTEIVVAVSETAEAGQNTISLVKNSTFTGFEDIYKSVFMNYEATR

Legend:
[1] = biological target: histidine-tagged monomeric RgpA (rRgpAH) (Porphyromonas gingivalis W50, UniProt P28784 228-658); assay: […], Tris buffer (50 mM Tris, 150 mM NaCl, 5 mM CaCl2, pH 8.0) […]; conditions: both partners purified
[2] = biological target: RgpB (Porphyromonas gingivalis, UniProt P95493 230-736); assay: as above; conditions: both partners purified
Sequence of RgpB (P95493 230-736): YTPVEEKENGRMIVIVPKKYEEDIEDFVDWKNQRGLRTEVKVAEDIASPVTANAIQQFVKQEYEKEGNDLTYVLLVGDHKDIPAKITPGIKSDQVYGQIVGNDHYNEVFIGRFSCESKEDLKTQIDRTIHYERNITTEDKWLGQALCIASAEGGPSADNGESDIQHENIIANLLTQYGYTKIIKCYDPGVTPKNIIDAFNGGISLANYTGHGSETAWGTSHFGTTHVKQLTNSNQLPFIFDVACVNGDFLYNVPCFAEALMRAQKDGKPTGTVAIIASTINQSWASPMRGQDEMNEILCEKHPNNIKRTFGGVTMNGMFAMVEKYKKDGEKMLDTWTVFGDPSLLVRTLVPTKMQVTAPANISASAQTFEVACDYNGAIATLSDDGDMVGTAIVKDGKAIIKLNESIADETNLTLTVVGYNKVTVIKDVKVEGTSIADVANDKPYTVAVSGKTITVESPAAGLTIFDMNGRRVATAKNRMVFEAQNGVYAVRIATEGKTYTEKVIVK

Sequence of histidine-tagged monomeric RgpA (rRgpAH) (P28784 228-658, tags or fused parts left off): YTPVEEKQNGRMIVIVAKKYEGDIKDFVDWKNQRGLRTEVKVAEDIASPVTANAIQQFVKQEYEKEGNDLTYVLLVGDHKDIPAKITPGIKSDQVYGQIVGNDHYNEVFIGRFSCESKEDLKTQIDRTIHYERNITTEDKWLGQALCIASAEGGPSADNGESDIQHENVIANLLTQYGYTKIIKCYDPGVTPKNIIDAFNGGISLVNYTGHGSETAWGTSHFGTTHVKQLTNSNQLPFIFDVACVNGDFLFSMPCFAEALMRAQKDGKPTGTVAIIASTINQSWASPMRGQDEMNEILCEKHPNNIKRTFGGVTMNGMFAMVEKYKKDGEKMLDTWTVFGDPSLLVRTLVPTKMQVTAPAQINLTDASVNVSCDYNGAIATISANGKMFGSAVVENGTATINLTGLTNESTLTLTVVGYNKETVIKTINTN

| Binder | Ki [1] | Ki [2] |
| --- | --- | --- |
| B1 | 13 nM | 15 nM |
| B2 | 22 nM | 29 nM |
